Measured values published in patent US20250277026A1.

Tests used:
human Claudin-6 (human) [1] = biological target: human Claudin-6 (human) (UniProt P56747); assay: FACS, NEC8 cells (endogenous CLDN6)
human Claudin-6 (human) [2] = biological target: human Claudin-6 (human) (UniProt P56747); assay: FACS, OV90 cells (endogenous CLDN6)
human Claudin-6 (human) [3] = biological target: human Claudin-6 (human) (UniProt P56747); assay: FACS, Claudin-6-CHO-K1 cells
human Claudin-6 (human) [4] = biological target: human Claudin-6 (human) (UniProt P56747); assay: FACS dose response, Claudin-6-HEK293 cells
human Claudin-6 (human) [5] = biological target: human Claudin-6 (human) (UniProt P56747); assay: cell-based or functional assay
human Claudin-6 (human) [6] = biological target: human Claudin-6 (human) (UniProt P56747); assay: FACS dose response, Claudin-6-CHO cells
human Claudin-3 (human) [7] = biological target: human Claudin-3 (human) (UniProt O15551); assay: FACS on Claudin-3-CHO-K1 cells, MFI relative to the isotype control
human Claudin-9 (human) [8] = biological target: human Claudin-9 (human) (UniProt O95484); assay: FACS dose response, Claudin-9-HEK293 cells
human Claudin-3 (human) [9] = biological target: human Claudin-3 (human) (UniProt O15551); assay: FACS on MCF7 cells, which endogenously express Claudin-3 and Claudin-4; MFI relative to the isotype control
human Claudin-4 (human) [10] = biological target: human Claudin-4 (human) (UniProt O14493); assay: as above
human Claudin-4 (human) [11] = biological target: human Claudin-4 (human) (UniProt O14493); assay: FACS, Claudin-4-CHO-K1 cells
human Claudin-9 (human) [12] = biological target: human Claudin-9 (human) (UniProt O95484); assay: FACS, Claudin-9-HEK293 cells, 5 µg/ml
human Claudin-4 (human) [13] = biological target: human Claudin-4 (human) (UniProt O14493); assay: FACS on Claudin-4-CHO-K1 cells, MFI relative to the isotype control

Sequence of human Claudin-6 (human) (P56747 whole entry): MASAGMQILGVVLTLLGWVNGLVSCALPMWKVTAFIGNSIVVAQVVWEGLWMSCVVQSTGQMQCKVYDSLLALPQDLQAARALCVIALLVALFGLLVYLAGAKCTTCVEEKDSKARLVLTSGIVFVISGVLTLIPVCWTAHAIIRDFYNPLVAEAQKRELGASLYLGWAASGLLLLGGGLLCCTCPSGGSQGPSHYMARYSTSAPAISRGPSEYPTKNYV
Sequence of human Claudin-9 (human) (O95484 whole entry): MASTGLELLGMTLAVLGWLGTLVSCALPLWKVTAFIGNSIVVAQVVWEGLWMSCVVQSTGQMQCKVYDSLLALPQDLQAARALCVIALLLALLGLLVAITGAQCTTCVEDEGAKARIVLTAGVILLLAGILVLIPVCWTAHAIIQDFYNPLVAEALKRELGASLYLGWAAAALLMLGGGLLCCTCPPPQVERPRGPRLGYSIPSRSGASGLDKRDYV
Sequence of human Claudin-3 (human) (O15551 whole entry): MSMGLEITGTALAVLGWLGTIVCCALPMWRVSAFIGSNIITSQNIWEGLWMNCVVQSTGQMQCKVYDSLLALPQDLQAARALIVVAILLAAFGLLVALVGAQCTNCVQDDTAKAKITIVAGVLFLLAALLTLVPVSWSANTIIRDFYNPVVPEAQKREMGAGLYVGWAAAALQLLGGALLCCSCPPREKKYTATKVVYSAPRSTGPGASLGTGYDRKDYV

fold MFI over isotype control (human Claudin-6 (human) [1]) | fold MFI over isotype control (human Claudin-6 (human) [2]) | fold MFI over isotype control (human Claudin-6 (human) [3]) | EC50 (human Claudin-6 (human) [4]) | EC50 (human Claudin-6 (human) [6]) | fold MFI over isotype control (human Claudin-3 (human) [7]) | EC50 (human Claudin-9 (human) [8]) | fold MFI over isotype control (human Claudin-3 (human) [9]) | fold MFI over isotype control (human Claudin-4 (human) [10]) | fold MFI over isotype control (human Claudin-4 (human) [11]) | fold MFI over isotype control (human Claudin-9 (human) [12]) | fold MFI over isotype control (human Claudin-4 (human) [13]) | Binder | endocytosis-mediated cytotoxicity (anti-hFc Fab-MMAF, CellTiter-Glo) on NEC8 cells, EC50 mean (St. Dev. 0.04) (human Claudin-6 (human) [5]) | endocytosis-mediated cytotoxicity on OV90 cells, EC50 (human Claudin-6 (human) [5]) | endocytosis-mediated cytotoxicity (anti-hFc Fab-MMAF, CellTiter-Glo) on NEC8 cells, EC50 mean (St. Dev. 0.03) (human Claudin-6 (human) [5])
20 fold | 15 fold | 25 fold | 8.73 nM | 24.5 nM | 1.6 x | 7.57 nM | 1 x | 1 x | 4.5 fold | 32 fold |  | NR.N6.PC2 (antibody, from another filing, V domains shown) VH: QVQLVQSGAEVKKPGASVKVSCKASGYTFTSYWMNWVRQAPGQRLEWMGMIHPSDSEIRLNQKFKDRVTITRDTSASTAYMELSSLRSEDTAVYYCARIDSYYGYLFYFDYWGQGTTVTVSS VL: DIVMTQSPDSLAVSLGERATINCRASQTVSTSSYSYMHWYQQKPGQPPKLLIYFASNVESGVPDRFSGSGSGTDFTLTISSLQAEDVAVYYCQHSWEIPWTFGQGTKLEIKR | 0.14 nM | 1.71 nM | 
19 fold | 20 fold | 25 fold | 1.51 nM | 1.52 nM | 1.1 x | 16.4 nM | 0.7 x | 0.7 x |  | 15 fold | 1.2 x | NR.N6.PC1 (antibody, from another filing, V domains shown) VH: EVQLQQSGPELVKPGASMKISCKASGYSFTGYTMNWVKQSHGKNLEWIGLINPYNGGTIYNQKFKGKATLTVDKSSSTAYMELLSLTSEDSAVYYCARDYGFVLDYWGQGTTLTVSS VL: QIVLTQSPSIMSVSPGEKVTITCSASSSVSYMHWFQQKPGTSPKLCIYSTSNLASGVPARFSGRGSGTSYSLTISRVAAEDAATYYCQQRSNYPPWTFGGGTKLEIK |  | 1.96 nM | 0.05 nM
